Substitutions are numbered along the chain they refer to. Names may count otherwise.
T1: fH6-7 (factor H CCP domains 6-7) (UniProt P08603 321-443)
T1 construct: domain: fH6-7; Analyte in SPR, 0.5 nM-32 nM
T1 sequence: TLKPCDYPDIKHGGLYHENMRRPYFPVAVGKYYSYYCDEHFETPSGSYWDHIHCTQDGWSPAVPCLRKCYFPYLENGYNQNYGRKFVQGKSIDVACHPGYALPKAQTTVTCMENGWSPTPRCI

B1: Ghfp^M4 (R288H) (other)
chain: DKGLKSLTLEASIPQNGTLTLSAQGAEKTFKAGGKDNSLNTGKLKNDKISRFDFVQKIEVDGQTITLASGEFQIYKQDHSAVVALRIEKINNPDKIDSLINQRSFLVSDLGGEHTAFNQLPDGKAEYHGKAFSSDDADGKLTYTIDFAAKQGHGKIEHLKTPEQNVELASAELKADEKSHAVILGDTRYGGEEKGTYHLALFGDRAQEIAGSATVKIGEKVHEIGIADKQ
notes: Text prints R288H (numbering according to fHbp V1.1 structure)
B2: Ghfp^M5 (D318G) (other)
chain: B1 chain with H198R, D228G
notes: Text prints D318G (fHbp V1.1 structure numbering)
B3: Ghfp^M4-5 (R288H/D318G) (other)
chain: B1 chain with D228G
notes: Text prints R288H/D318G (fHbp V1.1 structure numbering)

Columns and labels:
[1] = target: T1, fH6-7 (factor H CCP domains 6-7); assay: SPR, Biacore 3000, protein on CM5 chip, fH6-7 as analyte
[2] = target: T2, factor H (fH), full length (human, UniProt P08603 19-1231); assay: ELISA, coated protein, purified full length fH
T2 construct: mature; Far western used normal human serum diluted 1:100 as the source of fH; also called full length fH; purified full length fH

[3] = target: T1, fH6-7 (factor H CCP domains 6-7); assay: SPR, Biacore 3000, protein on CM5 chip

T2 sequence (P08603 19-1231): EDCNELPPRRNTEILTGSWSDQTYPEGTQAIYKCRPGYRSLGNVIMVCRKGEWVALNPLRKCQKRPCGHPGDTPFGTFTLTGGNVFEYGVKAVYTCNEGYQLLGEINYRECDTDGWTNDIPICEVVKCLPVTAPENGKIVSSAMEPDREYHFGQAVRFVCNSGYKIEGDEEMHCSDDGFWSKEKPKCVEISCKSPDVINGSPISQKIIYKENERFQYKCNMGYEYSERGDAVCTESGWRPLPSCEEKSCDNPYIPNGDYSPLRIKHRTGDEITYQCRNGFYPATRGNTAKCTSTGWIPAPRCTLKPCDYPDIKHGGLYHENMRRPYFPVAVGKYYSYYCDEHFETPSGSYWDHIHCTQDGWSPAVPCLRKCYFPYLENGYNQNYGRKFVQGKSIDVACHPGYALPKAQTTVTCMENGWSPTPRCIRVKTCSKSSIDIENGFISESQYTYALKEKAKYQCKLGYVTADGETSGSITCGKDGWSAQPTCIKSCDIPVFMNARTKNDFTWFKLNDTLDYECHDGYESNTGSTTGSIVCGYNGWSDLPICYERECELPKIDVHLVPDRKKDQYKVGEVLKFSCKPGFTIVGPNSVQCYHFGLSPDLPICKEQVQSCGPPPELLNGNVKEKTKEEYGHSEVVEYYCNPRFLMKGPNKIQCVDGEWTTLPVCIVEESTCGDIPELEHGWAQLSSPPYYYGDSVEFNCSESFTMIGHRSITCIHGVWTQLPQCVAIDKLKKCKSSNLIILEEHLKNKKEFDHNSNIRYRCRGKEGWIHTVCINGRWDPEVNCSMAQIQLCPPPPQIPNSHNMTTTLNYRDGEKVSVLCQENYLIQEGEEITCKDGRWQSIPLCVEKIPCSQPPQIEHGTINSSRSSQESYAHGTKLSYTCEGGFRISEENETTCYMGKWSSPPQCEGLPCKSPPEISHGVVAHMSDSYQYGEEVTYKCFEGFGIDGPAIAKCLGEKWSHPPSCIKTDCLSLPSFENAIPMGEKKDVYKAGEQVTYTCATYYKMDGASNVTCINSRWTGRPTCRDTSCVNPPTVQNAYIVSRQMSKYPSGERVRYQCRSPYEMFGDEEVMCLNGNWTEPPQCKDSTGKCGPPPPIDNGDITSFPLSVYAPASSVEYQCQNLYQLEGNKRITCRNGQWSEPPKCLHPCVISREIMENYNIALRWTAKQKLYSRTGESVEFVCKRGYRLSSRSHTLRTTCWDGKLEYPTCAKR

| Binder | Kd [1] [nM] | binding result [2] | binding result [3] |
| --- | --- | --- | --- |
| B1 | 16 | – | – |
| B2 | – | no binding | no binding (tested: fH6-7 0.5 nM-32 nM) |
| B3 | 2 | – | – |

— patent US20160030544A1 (ISIS INNOVATION, published 2016)
